Target: T1, human CD70 (human, UniProt P32970 1-193)
T1 construct: whole, on cells; also called CD70 antigen; CD27 ligand
T1 sequence (looked up): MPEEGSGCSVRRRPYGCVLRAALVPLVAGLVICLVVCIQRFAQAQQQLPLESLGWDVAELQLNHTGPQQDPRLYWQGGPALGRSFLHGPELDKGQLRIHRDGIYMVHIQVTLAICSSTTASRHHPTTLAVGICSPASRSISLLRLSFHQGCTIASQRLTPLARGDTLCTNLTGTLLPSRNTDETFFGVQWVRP
Assay: flow cytometry on CBNK cells, Raji WT cells and Raji CD70 KO cells
Method: Flow cytometry assay was conducted to detect the binding of various ml, m5, m6, m7, m14, m15, m16, m19, and m22 clones CD70 antibody clones to CD70 antigen expressed in various cells.

B1: m7 monoclonal anti-human CD70 antibody clone (antibody, V domains shown)
VH: QVQLKQSGPGLVQPSQSLSITCTVSGFSLTSYGVHWVRQSPGKGLEWLGVIWSGGSTDYNAAFISRLSISKDNSKSQVFFKMNSLQANDTAIYYCATYYRYDGWFAYWGQGTLVTVSA
VL: DIVLTQSPASLAVSLGQRATISCRASKSVSTSGYSYMHWYQQKPGQPPKLLIYLASNLESGVPARFSGSGSGTDFTLNIHPVEEEDAATYSCQHSRELPWTFGGGTKLEIK
notes: Purified monoclonal antibody; Detected with a goat anti-mouse IgG-HRP secondary antibody; also called m7-CD70
binding result: binds

B2: m14 monoclonal anti-human CD70 antibody clone (antibody, V domains shown)
VH: EVQLQQSGAELVKPGASVKLSCTASGFNIKDSYMHWVKQRPEQGLEWIGRIDPANANPKYDPKFQGKATITTDTSSNTAYLQLSSLTSEDTAVYYCARDYGGYFDVWGAGTTVTVSS
VL: DIQMTQSSSYLSVSLGGRVTITCKASDHINNWLAWYQQKPGNAPRLLISGATSLETGVPSRFSGSGSGKDYTLSITSLQTEDVATYYCQQYWSTPWTFGGGTKLEIK
notes: Purified monoclonal antibody; Detected with a goat anti-mouse IgG-HRP secondary antibody; also called m14-CD70
binding result: binds

Source: patent publication US20240269285A1 (University of Texas, published 2024)
